B1: YLR181C 258-271 (peptide)
chain: KEVDLTRPSAPSEP
B2: YPL216W 339-352 (peptide)
chain: KELPFTGPSIPFEN
B3: YJL105W 401-414 (peptide)
chain: KPKVLFHPHWPLYI
B4: YHR105W 144-157 (peptide)
chain: KLNSLQIPHLPPSV
B5: YFL040W 5-18 (peptide)
chain: KAIVWRLPKMPKIK
B6: YHL002W 140-153 (peptide)
chain: KAPYLVQPNVPEKH
B7: YHR027C 87-100 (peptide)
chain: KPLKFLRPTYPDLS
B8: YPL159C 152-165 (peptide)
chain: KLEDLNEPLSPWIS
B9: YBR033W 385-398 (peptide)
chain: KFTDMLDPEKPNVI
B10: YML035C 587-600 (peptide)
chain: KPSLWEAPQNPPYS
B11: YDL202W 121-134 (peptide)
chain: KEQNWKHPLLPLLK
B12: YLR256W 487-500 (peptide)
chain: KFFKHLYPAIPILD
B13: YPL243W 531-544 (peptide)
chain: KPKMLPIPSKPTLF
B14: YOR232W 171-184 (peptide)
chain: KLDPLGEPFDPNKH
B15: YBL037W 656-669 (peptide)
chain: ILQILFEPMPPFNS
B16: YOL107W 236-249 (peptide)
chain: KLAPLNSPSLPTTN
B17: YOR264W 96-109 (peptide)
chain: KFTDMQVPKGPVSP
B18: YJL157C 78-91 (peptide)
chain: KPLNLSKPISPPPS
B19: YGL142C 392-405 (peptide)
chain: KEFRFIFPLQPLFI
B20: YDR395W 823-836 (peptide)
chain: ILTLLKMPEVPNSV
B21: YER132C 923-936 (peptide)
chain: ILPVLNIPLPPQEK
B22: YER114C 444-457 (peptide)
chain: KPPSYPSPAQPPKS
B23: YKL108W 199-212 (peptide)
chain: KPSGYYGPNSPLKL
B24: YDR127W 327-340 (peptide)
chain: ILVAYGLPVSPDEK
B25: YMR182C 149-162 (peptide)
chain: IPLPHQPPPLPIYS
B26: YGR150C 548-561 (peptide)
chain: KLVKFKLPFLPISD
B27: YLR337C 317-330 (peptide)
chain: IPTSHAPPLPPTAP
B28: YCR034W 255-268 (peptide)
chain: KAVHLYFPILPHSG
B29: YNL132W 563-576 (peptide)
chain: KLFVLLPPIDPKDG
B30: YBL085W 399-412 (peptide)
chain: KPPSYPSPVQPPQS
B31: YCL010C 181-194 (peptide)
chain: KELLLIPPGFPTKN
B32: YLR337C 391-404 (peptide)
chain: KASSMPAPPPPPPP
B33: YAL031C 680-693 (peptide)
chain: KPAVLHYPPIPASA
B34: YBL052C 444-457 (peptide)
chain: KESKFGTPEKPLSD
B35: YHR027C 344-357 (peptide)
chain: KELNLTGPKVPEDI
B36: YGR002C 427-440 (peptide)
chain: ILQELSLPSRPVMP
B37: YML022W 11-24 (peptide)
chain: KLALHQYPNFPSEG
B38: YPR153W 14-27 (peptide)
chain: IPVGYVTPKFPSLY
B39: YFR030W 871-884 (peptide)
chain: KPSVMKLPPSPKQP
B40: YDL045W-A 4-17 (peptide)
chain: KPPVYRLPPLPRLK
B41: YLR072W 165-178 (peptide)
chain: KFRQMFKPLAPNTR
B42: YML083C 113-126 (peptide)
chain: KLPDLKLPPSPVPS
B43: YMR246W 198-211 (peptide)
chain: KFVIHNEPIDPSDK
B44: YJR111C 130-143 (peptide)
chain: ILVPHLDPIDPWEA
B45: YIL009W 198-211 (peptide)
chain: KFLIHNEPIDPNDR
B46: YPL075W 704-717 (peptide)
chain: KLGRFTNPQQPRED
B47: YAR003W 97-110 (peptide)
chain: KLWDLSKPSKPLKE
B48: YIL159W 764-777 (peptide)
chain: KLPQLPPPPPPPPP
B49: YDR266C 567-580 (peptide)
chain: KLKSLNLPQLPPPK
B50: YER045C 32-45 (peptide)
chain: KELIYKQPSGPGLV
B51: YNR011C 604-617 (peptide)
chain: KFPLMDKPSIPTLR
B52: YDR231C 158-171 (peptide)
chain: KPMLHNVPHDPSLP
B53: YAR009C 933-946 (peptide)
chain: KLPKLNVPLNPKGK
B54: YPL179W 199-212 (peptide)
chain: KAGSFGAPSSPTSG

Results on 54 molecules are retold here after PMC314469, “Protein Interaction Networks by Proteome Peptide Scanning” (PLoS Biology, 2004).

In the experiment the target is T1, Myo5 SH3 (MYO5_YEAST), Q04439.
T1 chain: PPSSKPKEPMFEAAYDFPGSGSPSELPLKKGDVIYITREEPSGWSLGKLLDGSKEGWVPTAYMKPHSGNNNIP
Nature of the experiment: SPOT array.
In turn, B1 registered a normalised SPOT signal, Boehringer light units (BLU); mean over the file's lines of this peptide of 132. As to B2, the normalised SPOT signal, Boehringer light units (BLU); mean over the file's lines of this peptide worked out at 339.

Molecule B3 registered a normalised SPOT signal, Boehringer light units (BLU); mean over the file's lines of this peptide of 196. The figure for B4 is 350; for B5 it is 515. The molecule B6 displayed a normalised SPOT signal, Boehringer light units (BLU); mean over the file's lines of this peptide of 131.

Turning to B7, the normalised SPOT signal, Boehringer light units (BLU); mean over the file's lines of this peptide was 149. In turn, B8 came in with a normalised SPOT signal, Boehringer light units (BLU); mean over the file's lines of this peptide of 71.1.

Turning to B9, the normalised SPOT signal, Boehringer light units (BLU); mean over the file's lines of this peptide was determined as 262. The molecule B10 had a normalised SPOT signal, Boehringer light units (BLU); mean over the file's lines of this peptide of 152. As for B11, the normalised SPOT signal, Boehringer light units (BLU); mean over the file's lines of this peptide is 321. The figure for B12 is 217; for B13 it is 1360; for B14 it is 276.

B15 registered a normalised SPOT signal, Boehringer light units (BLU); mean over the file's lines of this peptide of 200. As to B16, the normalised SPOT signal, Boehringer light units (BLU); mean over the file's lines of this peptide was 212. The molecule B17 showed a normalised SPOT signal, Boehringer light units (BLU); mean over the file's lines of this peptide of 197. With B18, the normalised SPOT signal, Boehringer light units (BLU); mean over the file's lines of this peptide amounted to 254. Turning to B19, the normalised SPOT signal, Boehringer light units (BLU); mean over the file's lines of this peptide came out at 750. As for B20, the normalised SPOT signal, Boehringer light units (BLU); mean over the file's lines of this peptide came to 172. Molecule B21 showed a normalised SPOT signal, Boehringer light units (BLU); mean over the file's lines of this peptide of 21.6. For the molecule B22, the normalised SPOT signal, Boehringer light units (BLU); mean over the file's lines of this peptide was determined as 11900.

On to B23, for which the normalised SPOT signal, Boehringer light units (BLU); mean over the file's lines of this peptide came out at 159.

For B24, the normalised SPOT signal, Boehringer light units (BLU); mean over the file's lines of this peptide was 167. The molecule B25 showed a normalised SPOT signal, Boehringer light units (BLU); mean over the file's lines of this peptide of 53600. The molecule B26 displayed a normalised SPOT signal, Boehringer light units (BLU); mean over the file's lines of this peptide of 974. Consider B27, for which the normalised SPOT signal, Boehringer light units (BLU); mean over the file's lines of this peptide stood at 43600. Regarding B28, the normalised SPOT signal, Boehringer light units (BLU); mean over the file's lines of this peptide amounted to 125. To B29 belongs 258. Turning to B30, the normalised SPOT signal, Boehringer light units (BLU); mean over the file's lines of this peptide came out at 16500.

With B31, the normalised SPOT signal, Boehringer light units (BLU); mean over the file's lines of this peptide came to 123. In turn, B32 showed a normalised SPOT signal, Boehringer light units (BLU); mean over the file's lines of this peptide of 10500. Take B33: the normalised SPOT signal, Boehringer light units (BLU); mean over the file's lines of this peptide was 183. B34 registered a normalised SPOT signal, Boehringer light units (BLU); mean over the file's lines of this peptide of 250. The figure for B35 is 102; for B36 it is 51.9; for B37 it is 130. On to B38, for which the normalised SPOT signal, Boehringer light units (BLU); mean over the file's lines of this peptide is 21.6. On to B39, for which the normalised SPOT signal, Boehringer light units (BLU); mean over the file's lines of this peptide was determined as 380. In the case of B40, the normalised SPOT signal, Boehringer light units (BLU); mean over the file's lines of this peptide came out at 2310. As to B41, the normalised SPOT signal, Boehringer light units (BLU); mean over the file's lines of this peptide turned out to be 1220. Regarding B42, the normalised SPOT signal, Boehringer light units (BLU); mean over the file's lines of this peptide came to 231. Take B43: the normalised SPOT signal, Boehringer light units (BLU); mean over the file's lines of this peptide came to 46.7. To B44 belongs 166. As for B45, the normalised SPOT signal, Boehringer light units (BLU); mean over the file's lines of this peptide is 122.

With B46, the normalised SPOT signal, Boehringer light units (BLU); mean over the file's lines of this peptide is 227. B47 returned a normalised SPOT signal, Boehringer light units (BLU); mean over the file's lines of this peptide of 233. B48 showed a normalised SPOT signal, Boehringer light units (BLU); mean over the file's lines of this peptide of 54100. For B49, the normalised SPOT signal, Boehringer light units (BLU); mean over the file's lines of this peptide was found to be 675. Regarding B50, the normalised SPOT signal, Boehringer light units (BLU); mean over the file's lines of this peptide is 79.3. B51 came in with a normalised SPOT signal, Boehringer light units (BLU); mean over the file's lines of this peptide of 432. B52 had a normalised SPOT signal, Boehringer light units (BLU); mean over the file's lines of this peptide of 413.

Molecule B53 came in with a normalised SPOT signal, Boehringer light units (BLU); mean over the file's lines of this peptide of 305. The figure for B54 is 124.
